# Assay results reported in publication PMC9835228 (Journal of Translational Medicine, 2023).
# Legend:
# [1] = tested on: SK-BR-3 tumors (HER2-positive); assay: Small-animal nanoScan SPECT/CT imaging in the SK-BR-3 tumor model; type: in vivo, female NOD SCID mice
# Description: At 0.5, 1 and 2 h p.i., the mice were anesthetized by inhalation of 2% isoflurane and imaged using a nanoScan SPECT/CT system (Mediso Inc., Hungary) following a standard protocol. Briefly, the small-animal SPECT images were acquired with the technetium-99 m parameters (peak 140 keV with 20% width, frame time 25 s), and CT images were acquired with default settings (50 kVp, 0.67 mA, and rotation 210°, exposure time 300 ms). All SPECT/CT images were reconstructed and further analyzed by Fusion software (Mediso Inc., Hungary), including drawing volumes of interest on tumors and major organs as well as calculating the tumor uptake (%ID/cc) accordingly. […] Small-animal imaging of the monomer tracer ^99mTc-HP-rk was also conducted as a control.
# [2] = Dosimetry estimation (OLINDA/EXM); design: species or system human; conditions: for effective radiation dose to the body: 11.1 MBq/kg
# Description: The dosimetry calculation was performed according to the European Association of Nuclear Medicine Dosimetry Guidance and calculated using OLINDA/EXM (version 1.1; Vanderbilt University). The radiation effective dose (mSv/MBq) of the main organs of the human body was estimated from the biodistribution data of the SK-BR-3 tumor models (Additional file 1: Table S1).
# The radiation effective dose (mSv/MBq) of the main organs of the human body was estimated from the biodistribution data of the SK-BR-3 tumor model (Table S1).
# [3] = radio-HPLC (Fig. 1B)
# [4] = tested on: SK-BR-3 tumor (HER2-positive); conditions: 0.5, 1 and 2 h p.i.; 0.37 MBq i.v.; 4 mice/group
# Description: (§1) The animals were randomly chosen for in vivo assays when the tumor size reached 100–150 mm^3 (1–2 weeks after inoculation).
# (§2) Each mouse was injected with 0.37 MBq (~ 0.03 µg) of tracer to evaluate the distribution of the probe in tumors and major organs (4 mice/group). The mice were sacrificed and dissected at 0.5, 1 and 2 h p.i. Blood, tumor, liver, kidney and other major organs were collected and weighed, and their radioactivity was counted in a Wallac 1480 γ-counter (Perkin-Elmer, Waltham, MA). […] All biodistribution data are presented as the percentage of injected dose per gram of tissue (%ID/g).
# [5] = tested on: HER2 expression in breast tumors
# Description: (§3) The wrist or elbow on the same side as the healthy breast was selected for injection. […] On PET images, the volumes of interest (VOIs) were drawn over tumors using a 40% threshold, and the software automatically obtained the radioactivity concentration and the maximum and the mean standardized uptake values (SUVmax and SUVmean, respectively). T/B ratios were calculated from SUVmean values for further analysis. The contralateral breast tissue was considered the background for calculations. For semiquantitative analyses of SPECT images, the same VOI method as above was adopted to obtain the maximum and the average count values (Countsmax and Countsavg, respectively) of the breast tumors. The Countsavg value was compared between the tumor region and the contralateral region to obtain the T/B ratio. Calculations were performed using SPSS 23.0 software (IBM SPSS, Chicago, IL, USA) and GraphPad Prism 8 (GraphPad Software, San Diego, CA 92,108). After surgery, HER2 expression status was evaluated by IHC in tumor pathological sections of all 34 patients. For patients with an IHC score of HER2 (2 +), FISH was further performed.
# (§4) Quantitative data were expressed as the mean ± SD. Statistical analysis of image parameters and biodistribution was performed with Student’s t test in Prism 7.0 (GraphPad Software, Inc., USA). P < 0.05 was considered statistically significant. Correlation analysis of the SUV data of clinical images and the IHC results was performed with SPSS Statistics 23.0 software (IBM SPSS, USA). The correlation between the SPECT T/B ratio and HER2 status was evaluated by Wilcoxon’s rank sum test. Spearman’s rank correlation analysis was performed on the SPECT T/B ratio and the immunoreactivity score. ROC curve analysis was performed to determine an optimal cutoff value for detecting HER2-positive (2 + , 3 +) breast cancer and to compare the diagnostic performance of different methods.
# [6] = 1.85 MBq i.v., blood 1-240 min p.i., γ-counter, seven mice, fitted in Prism 7.0
# Description: Blood was drawn through the orbit of the mouse at 1, 3, 8, 15, 30, 60, 90, 120, 180, and 240 min p.i. The radioactivity was counted in a γ-counter, and the percentage injected dose per gram of blood (%ID/g) at each time point was calculated. The slow half-life and fast half-life were analyzed and calculated by Prism 7.0.
# [7] = 74 MBq i.v., n = 5
# Description: Ten 4-week-old female ICR mice were randomly divided into the experimental and control groups. The mice were numbered, weighed and photographed. […] The mice in the control group were injected with the same volume of saline. After 120 h, the mice were photographed again, their body weight was recorded, and the behavioral differences were observed. After the mice were sacrificed, they were dissected to observe the morphological differences in the organs.
# [8] = in vivo; conditions: female, NOD SCID, mouse, tumor (SK-BR-3 xenograft), iv, 0.37 MBq, total radioactivity
# Description: as §1, §2
# [9] = in vivo; conditions: female, NOD SCID, mouse, tumor (MCF7 xenograft), 0.37 MBq, total radioactivity
# Description: as §1, §2
# [10] = in vivo; conditions: female, NOD SCID, mouse, tumor (MDA-MB-468 xenograft), 0.37 MBq, total radioactivity
# Description: as §1, §2
# [11] = clinical; conditions: female, human, in vivo, iv, 11.1 MBq per kilogram body weight, total radioactivity, mean ± SD
# Description: as §3, §4
# [12] = In vivo metabolic stability (urine, radio-HPLC); conditions: ~37 MBq i.v., mouse urine collected p.i. (2 h, b63; 0.5 h for ^99mTc-H10F in Fig. S3)
# [13] = target: HER2 on SK-BR-3 cells (HER2-positive human breast cancer cell line) (human (endogenous in SK-BR-3)) (UniProt P04626)
# [14] = target: T1, HER2 protein (human, UniProt P04626 23-652); assay: SPR; Plexera PlexArray HT; sulfhydryl peptides printed on a bare gold chip through the cysteine thiol, blocked with 5% nonfat milk; protein flowed over in PBS (HER2 at 70.4, 35.2, 17.6 and 8.8 nM); regeneration 0.5% H3PO4; EGFR, HER3 and HER4 as controls with the same procedure; conditions: both partners purified
# T1 construct: human epidermal growth factor receptor 2 (HER2), soluble protein used as SPR analyte; also called human epidermal growth factor receptor 2
# [15] = Female, OLINDA/EXM 1.1, from mouse SK-BR-3 biodistribution
# [16] = Male, OLINDA/EXM 1.1, from mouse SK-BR-3 biodistribution
molecule,measurement,setting,value
"CC(C)C[C@@H](NC(=O)[C@@H](CCCNC(=N)N)NC(=O)[C@@H](CC(C)C)NC(=O)[C@@H](CCC(=O)O)NC(=O)[C@@H](Cc1c[nH]c2ccccc12)NC(=O)[C@@H](CC(N)=O)NC(=O)[C@@H](CCCNC(=N)N)NC(=O)CCCCCCCNC(=O)CC[C@H](NC(=O)CCOCCOCCOCCOCCNC(=O)c1ccc(NN=Cc2ccccc2S(=O)(=O)O)nc1)C(=O)NCCCCCCCC(=O)N[C@H](CCCNC(=N)N)C(=O)N[C@H](CC(N)=O)C(=O)N[C@H](Cc1c[nH]c2ccccc12)C(=O)N[C@H](CCC(=O)O)C(=O)N[C@H](CC(C)C)C(=O)N[C@H](CCCNC(=N)N)C(=O)N[C@H](CC(C)C)C(=O)N[C@H](CCCCN)C(=O)O)C(=O)N[C@H](CCCCN)C(=O)O [^99mTc-HP-Ark2, metal not drawn]",imaging intensity in tumors compared with monomer tracer,"[1]; SK-BR-3 model, 0.5 h p.i.",stronger than that of ^99mTc-HP-rk
same,tumor uptake on imaging with coinjected cold rk peptide,"[1]; blocking dose 25 mg/kg rk, 0.5 h p.i.",significantly blocked tumor uptake
same,tumor uptake on imaging with coinjected cold trastuzumab,"[1]; blocking dose 30 mg/kg trastuzumab, 0.5 h p.i.",did not block tumor uptake
same,tumor visualization by SPECT/CT,"[1]; ~37 MBq i.v., 0.5, 1 and 2 h p.i., subcutaneous or in situ, tumors as small as ~20 mm^3",clearly visualized
same,effective radiation dose to the body,[2]; 50 kg females,~5.72 mSv
same,effective radiation dose to the body,[2]; 65 kg males,approximately 6.62 mSv
same,"Effective Dose Equivalent, Adrenals",[2]; [15],5.36E-04 mSv/MBq
same,"Effective Dose Equivalent, Brain",[2]; [15],0.00E+00 mSv/MBq
same,"Effective Dose Equivalent, Breasts",[2]; [15],4.44E-05 mSv/MBq
same,"Effective Dose Equivalent, Gallbladder Wall",[2]; [15],2.60E-04 mSv/MBq
same,"Effective Dose Equivalent, Heart Wall",[2]; [15],0.00E+00 mSv/MBq
same,"Effective Dose Equivalent, Kidneys",[2]; [15],7.87E-03 mSv/MBq
same,"Effective Dose Equivalent, LLI Wall",[2]; [15],0.00E+00 mSv/MBq
same,"Effective Dose Equivalent, Liver",[2]; [15],0.00E+00 mSv/MBq
same,"Effective Dose Equivalent, Lungs",[2]; [15],1.90E-04 mSv/MBq
same,"Effective Dose Equivalent, Muscle",[2]; [15],0.00E+00 mSv/MBq
same,"Effective Dose Equivalent, Osteogenic Cells",[2]; [15],6.07E-05 mSv/MBq
same,"Effective Dose Equivalent, Ovaries",[2]; [15],2.49E-04 mSv/MBq
same,"Effective Dose Equivalent, Pancreas",[2]; [15],3.43E-04 mSv/MBq
same,"Effective Dose Equivalent, Red Marrow",[2]; [15],2.27E-04 mSv/MBq
same,"Effective Dose Equivalent, Skin",[2]; [15],0.00E+00 mSv/MBq
same,"Effective Dose Equivalent, Small Intestine",[2]; [15],0.00E+00 mSv/MBq
same,"Effective Dose Equivalent, Spleen",[2]; [15],4.89E-04 mSv/MBq
same,"Effective Dose Equivalent, Stomach Wall",[2]; [15],0.00E+00 mSv/MBq
same,"Effective Dose Equivalent, Thymus",[2]; [15],0.00E+00 mSv/MBq
same,"Effective Dose Equivalent, Thyroid",[2]; [15],2.78E-06 mSv/MBq
same,"Effective Dose Equivalent, ULI Wall",[2]; [15],0.00E+00 mSv/MBq
same,"Effective Dose Equivalent, Urinary Bladder Wall",[2]; [15],0.00E+00 mSv/MBq
same,"Effective Dose Equivalent, Uterus",[2]; [15],0.00E+00 mSv/MBq
same,"Effective Dose Equivalent, Adrenals",[2]; [16],4.04E-04 mSv/MBq
same,"Effective Dose Equivalent, Brain",[2]; [16],0.00E+00 mSv/MBq
same,"Effective Dose Equivalent, Breasts",[2]; [16],3.64E-05 mSv/MBq
same,"Effective Dose Equivalent, Gallbladder Wall",[2]; [16],2.31E-04 mSv/MBq
same,"Effective Dose Equivalent, Heart Wall",[2]; [16],0.00E+00 mSv/MBq
same,"Effective Dose Equivalent, Kidneys",[2]; [16],7.26E-03 mSv/MBq
same,"Effective Dose Equivalent, LLI Wall",[2]; [16],0.00E+00 mSv/MBq
same,"Effective Dose Equivalent, Liver",[2]; [16],0.00E+00 mSv/MBq
same,"Effective Dose Equivalent, Lungs",[2]; [16],1.38E-04 mSv/MBq
same,"Effective Dose Equivalent, Muscle",[2]; [16],0.00E+00 mSv/MBq
same,"Effective Dose Equivalent, Osteogenic Cells",[2]; [16],4.73E-05 mSv/MBq
same,"Effective Dose Equivalent, Pancreas",[2]; [16],2.81E-04 mSv/MBq
same,"Effective Dose Equivalent, Red Marrow",[2]; [16],1.94E-04 mSv/MBq
same,"Effective Dose Equivalent, Skin",[2]; [16],0.00E+00 mSv/MBq
same,"Effective Dose Equivalent, Small Intestine",[2]; [16],0.00E+00 mSv/MBq
same,"Effective Dose Equivalent, Spleen",[2]; [16],3.96E-04 mSv/MBq
same,"Effective Dose Equivalent, Stomach Wall",[2]; [16],0.00E+00 mSv/MBq
same,"Effective Dose Equivalent, Testes",[2]; [16],0.00E+00 mSv/MBq
same,"Effective Dose Equivalent, Thymus",[2]; [16],0.00E+00 mSv/MBq
same,"Effective Dose Equivalent, Thyroid",[2]; [16],2.27E-06 mSv/MBq
same,"Effective Dose Equivalent, ULI Wall",[2]; [16],0.00E+00 mSv/MBq
same,"Effective Dose Equivalent, Urinary Bladder Wall",[2]; [16],0.00E+00 mSv/MBq
same,"Effective Dose Equivalent, Uterus",[2]; [16],0.00E+00 mSv/MBq
same,in vitro stability,[3],excellent in vitro and in vivo stability
same,tumor uptake compared with other organs,[4],higher tumor uptake than uptake in other organs (except for kidneys)
same,adverse events related to tracer administration,"[5]; 34 patients, ~11.1 MBq/kg i.v.",No adverse events
same,detection of metastatic lymph nodes,"[5]; patients with HER2-positive tumors and ipsilateral lymph node metastases (Nos. 4, 5, 7, 15, 24, 29)",all 6 patients
same,kidney uptake in patients,"[5]; quantified biodistribution from SPECT/CT, n = 34 (Fig. S10)",high uptake
same,fast half-life in blood,[6],3.12 min
same,slow half-life in blood,[6],32.45 min
same,body weight after high-dose injection,[7]; 120 h,did not decrease
same,organ morphology after dissection,[7]; 120 h,no abnormal organs
same,behavior after high-dose injection,[7]; 120 h after injection,no abnormal behavior
same,tissue uptake at 0.5 h,[8],3.99 ± 0.15 %ID/g
same,tissue uptake at 0.5 h,[9],1.44 ± 0.08 %ID/g
same,tissue uptake at 0.5 h,[10],1.08 ± 0.06 %ID/g
same,tissue to tissue ratio at 0.5 h,"[11]; T/B ratio of HER2-negative tumors, IHC (2+) plus FISH+ or IHC (3+) criterion, n = 24",1.54 ± 1.03
same,tissue to tissue ratio at 0.5 h,"[11]; T/B ratio of HER2-negative tumors, negative = IHC (0/1+), n = 17",1.16 ± 0.29
same,tissue to tissue ratio at 0.5 h,"[11]; T/B ratio of HER2-positive tumors, positive = IHC (2+) or (3+), n = 19",2.49 ± 1.13
same,tissue to tissue ratio at 0.5 h,"[11]; T/B ratio of HER2-positive tumors, positive = IHC (2+) plus FISH+ or IHC (3+), n = 12",2.5 ± 0.88
same,in vivo metabolic stability,[12],excellent in vitro and in vivo stability
"^99mTc-HP-Ark2, ^99mTc-{HYNIC-PEG4-Glu[8-aminooctanoic-D(RNWELRLK)]2/Tricine/TPPTS} (peptide)","tumor uptake in the SK-BR-3 tumor model at 0.5 h p.i. (biodistribution, n = 4)",[13],3.99 %ID/g
same,"tumor uptake in the SK-BR-3 tumor model at 0.5 h p.i. with coinjection of excess cold rk peptide (blocking group, n = 4)",[13],1.42 %ID/g
"KLRLEWNR (HER2-targeting L-peptide H10F; also called parental L-peptide; source: synthetic peptide, bought: GL Biochem Ltd) [Cys-H10F (sulfhydryl form of the L-peptide H10F, KLRLEWNR)]",Kd,[14],70.2 nM
